Numbering of substitutions follows the chain as printed.
T1: Aptx full-length WT (Schizosaccharomyces pombe, UniProt O74859 1-232)
T1 sequence: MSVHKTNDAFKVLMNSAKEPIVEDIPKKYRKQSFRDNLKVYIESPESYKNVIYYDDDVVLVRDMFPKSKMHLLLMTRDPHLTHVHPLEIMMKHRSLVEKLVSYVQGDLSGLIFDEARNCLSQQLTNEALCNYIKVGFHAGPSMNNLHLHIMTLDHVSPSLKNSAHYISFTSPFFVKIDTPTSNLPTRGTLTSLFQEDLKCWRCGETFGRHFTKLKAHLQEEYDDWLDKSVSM

T2: Aptx F65A (Schizosaccharomyces pombe, UniProt O74859 1-232, F65A)
T2 sequence: T1 sequence with F65A

T3: Aptxcat (HIT-Znf catalytic core) (Schizosaccharomyces pombe, UniProt O74859 30-232)
T3 sequence: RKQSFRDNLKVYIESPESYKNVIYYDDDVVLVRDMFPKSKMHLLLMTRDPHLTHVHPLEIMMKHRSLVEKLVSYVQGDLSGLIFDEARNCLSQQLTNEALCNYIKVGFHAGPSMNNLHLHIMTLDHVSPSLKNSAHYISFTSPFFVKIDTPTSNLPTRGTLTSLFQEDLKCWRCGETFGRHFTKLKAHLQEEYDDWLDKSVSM

B1: SSB 39-mer (1-nt gap, 3'- and 5'-phosphates) (dsDNA)
DNA 1: CCGAGCATGAATAACCTGCACCTGCATATTATGACTCTG
DNA 2: CAGAGTCATAATATGCAGG
DNA 3: GCAGGTTATTCATGCTCGG
modifications: 3'-phosphate on S5; 5'-phosphate on S6
B2: 39-mer dsDNA (dsDNA)
DNA 1: CAGAGTCATAATATGCAGGTGCAGGTTATTCATGCTCGG
DNA 2: B1 DNA 1
B3: Crystallized duplex, strands A and C (dsDNA)
DNA 1: CCCTG
DNA 2: TATCGGAATCAGGG
modifications: 5'-OH and 3'-OH on both strands
B4: 39-mer ssDNA (ssDNA)
DNA: B2 DNA 1

How the values were obtained:
[1] = biological target: T1, Aptx full-length WT; assay: fluorescence polarization
[2] = biological target: T2, Aptx F65A; assay: fluorescence polarization
[3] = biological target: T3, Aptxcat (HIT-Znf catalytic core); assay: X-ray crystallography

Binder	Kd [1]	Kd [2]	binding result [3]
B1	80 nM	250 nM	–
B2	190 nM	–	–
B3	–	–	binds
B4	330 nM	–	–

Reference: publication PMC3210380
